PMC12205087

Experiments:
[1] = biological target: DREN-APAZ protein of the NbaSPARDA system, strep-tagged (Novosphingopyxis baekryungensis); assay: cryo-EM structure; substrate-bound complex: NbaSPARDA with gRNA, 21-nt tDNA and substrate ssDNA, 0.16 mg/mL; filament, 3.19 Å
[2] = biological target: DREN-APAZ protein of the NbaSPARDA system, strep-tagged (Novosphingopyxis baekryungensis); assay: cryo-EM structure; active complex: NbaSPARDA with gRNA and 21-nt tDNA (1:1.2:1.2), 0.2 mg/mL; filament, 3.18 Å
[3] = biological target: NbaSPARDA complex (heterodimer of NbaAgo and DREN-APAZ), wild type (Novosphingopyxis baekryungensis); assay: as above
[4] = biological target: NbaSPARDA complex (heterodimer of NbaAgo and DREN-APAZ), wild type (Novosphingopyxis baekryungensis); assay: cryo-EM structure; guide-bound complex: NbaSPARDA with 20-nt 5'-phosphorylated gRNA (1:1.2, 25 °C, 15 min), 0.4 mg/mL, buffer F (20 mM Tris-HCl pH 8.0, 200 mM NaCl, 2 mM DTT, 2 mM MgCl2); 2.93 Å, C2 symmetry

Row | Substance | stoichiometry N [1] | stoichiometry N [2] | stoichiometry N [3] | stoichiometry N [4]
1 | DREN-APAZ protein of the NbaSPARDA system, strep-tagged (natural protein) | 4 | 4 |  | 
2 | NbaSPARDA complex (heterodimer of NbaAgo and DREN-APAZ), wild type |  |  | 32 copies | 2
